Paper PMC9482650, “Quantitative fragmentomics allow affinity mapping of interactomes” (Nature Communications, 2022)

T1: SYNJ2BP, P57105
T1 sequence (P57105 8-110, limits assumed, looked up): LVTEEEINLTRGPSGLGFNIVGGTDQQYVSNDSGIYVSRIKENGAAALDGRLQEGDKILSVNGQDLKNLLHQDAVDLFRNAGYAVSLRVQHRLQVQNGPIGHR

T2: MPP7, Q5T2T1
T2 sequence (Q5T2T1 134-230, limits assumed, looked up): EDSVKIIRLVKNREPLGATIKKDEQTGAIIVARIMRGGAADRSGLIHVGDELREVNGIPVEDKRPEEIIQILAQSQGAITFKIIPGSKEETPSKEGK

T3: MPDZ_5, O75970
T3 sequence (O75970 695-796, limits assumed, looked up): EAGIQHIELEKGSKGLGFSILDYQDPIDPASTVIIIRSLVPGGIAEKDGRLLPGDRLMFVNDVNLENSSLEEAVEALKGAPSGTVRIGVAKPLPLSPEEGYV

T4: LRRC7, Q96NW7
T4 sequence (Q96NW7 1440-1537, limits assumed, looked up): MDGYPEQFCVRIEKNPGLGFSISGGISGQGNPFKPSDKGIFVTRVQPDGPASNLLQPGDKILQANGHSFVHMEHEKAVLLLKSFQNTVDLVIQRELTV

T5: NHERF3_3, Q5T2W1
T5 sequence (Q5T2W1 238-333, limits assumed, looked up): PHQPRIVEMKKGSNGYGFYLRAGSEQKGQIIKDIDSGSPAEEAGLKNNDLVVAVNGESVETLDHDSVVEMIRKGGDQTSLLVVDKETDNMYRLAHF

T6: PCLO, Q9Y6V0
T6 sequence (Q9Y6V0 4491-4600, limits assumed, looked up): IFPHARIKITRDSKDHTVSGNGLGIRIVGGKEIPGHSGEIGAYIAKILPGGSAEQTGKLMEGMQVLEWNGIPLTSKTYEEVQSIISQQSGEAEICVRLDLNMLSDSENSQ

T7: NHERF3_4, Q5T2W1
T7 sequence (Q5T2W1 373-468, limits assumed, looked up): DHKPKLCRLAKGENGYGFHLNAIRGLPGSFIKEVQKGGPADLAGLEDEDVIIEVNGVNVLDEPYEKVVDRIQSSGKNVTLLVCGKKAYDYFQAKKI

T8: TX1BP3, O14907
T8 sequence (O14907 10-122, limits assumed, looked up): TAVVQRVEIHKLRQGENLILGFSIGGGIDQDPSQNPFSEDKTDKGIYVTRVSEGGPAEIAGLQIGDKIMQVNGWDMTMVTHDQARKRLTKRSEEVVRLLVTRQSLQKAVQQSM

T9: SNTA1, Q13424
T9 sequence (Q13424 82-180, limits assumed, looked up): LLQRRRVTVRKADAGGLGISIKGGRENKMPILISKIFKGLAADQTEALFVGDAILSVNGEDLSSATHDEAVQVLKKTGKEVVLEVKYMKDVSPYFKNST

T10: GRIP1_3, Q9Y3R0
T10 sequence (Q9Y3R0 247-346, limits assumed, looked up): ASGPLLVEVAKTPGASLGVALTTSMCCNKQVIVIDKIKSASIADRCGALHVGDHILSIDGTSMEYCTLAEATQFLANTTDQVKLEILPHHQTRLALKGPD

T11: GRIP1_7, Q9Y3R0
T11 sequence (Q9Y3R0 999-1096, limits assumed, looked up): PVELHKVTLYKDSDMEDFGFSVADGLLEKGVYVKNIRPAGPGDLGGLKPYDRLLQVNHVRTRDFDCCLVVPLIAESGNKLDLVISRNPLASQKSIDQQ

T12: RHPN1, Q8TCX5
T12 sequence (Q8TCX5 508-602, limits assumed, looked up): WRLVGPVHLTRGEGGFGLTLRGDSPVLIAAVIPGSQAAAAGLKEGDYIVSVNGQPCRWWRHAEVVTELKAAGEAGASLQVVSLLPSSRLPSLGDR


Target: T1, SYNJ2BP, P57105
Assay: holdup assay
Parameters: key: below the threshold = too weak to quantify, mostly under pKd 3.1 to 4
Conditions: plain residues with an end cap or a label only (N-terminal biotin on a linker: ado-ado)

| Binder | pKd |
| --- | --- |
| KKMPSIESDV [GRIN2A, Q12879] | 4.85 |

Target: GRID2IP_2, A4D2P6
Sequence (A4D2P6 272-370): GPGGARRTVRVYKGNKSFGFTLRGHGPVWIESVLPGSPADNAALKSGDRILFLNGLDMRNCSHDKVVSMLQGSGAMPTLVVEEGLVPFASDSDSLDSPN
Assay: holdup assay
Parameters: key: below the threshold = too weak to quantify, mostly under pKd 3.1 to 4
Conditions: plain residues with an end cap or a label only (N-terminal biotin on a linker: ado-ado)

| Binder | pKd |
| --- | --- |
| KKMPSIESDV [GRIN2A, Q12879] | 3.59 |

Target: DLG5_1, Q8TDM6
Sequence (Q8TDM6 617-713): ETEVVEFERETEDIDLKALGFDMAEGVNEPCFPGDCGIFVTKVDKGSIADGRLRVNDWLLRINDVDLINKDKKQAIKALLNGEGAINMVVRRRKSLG
Assay: holdup assay
Parameters: key: below the threshold = too weak to quantify, mostly under pKd 3.1 to 4
Conditions: plain residues with an end cap or a label only (N-terminal biotin on a linker: ado-ado)

| Binder | pKd |
| --- | --- |
| KKMPSIESDV [GRIN2A, Q12879] | below the threshold |

Target: T2, MPP7, Q5T2T1
Assay: holdup assay
Parameters: key: below the threshold = too weak to quantify, mostly under pKd 3.1 to 4
Conditions: plain residues with an end cap or a label only (N-terminal biotin on a linker: ado-ado)

| Binder | pKd |
| --- | --- |
| KKMPSIESDV [GRIN2A, Q12879] | below the threshold |

Target: DLG2_3, Q15700
Assay: holdup assay
Parameters: key: below the threshold = too weak to quantify, mostly under pKd 3.1 to 4
Conditions: plain residues with an end cap or a label only (N-terminal biotin on a linker: ado-ado)

| Binder | pKd |
| --- | --- |
| KKMPSIESDV [GRIN2A, Q12879] | 3.74 |

Target: MAGI2_3, Q86UL8
Sequence (Q86UL8 600-682): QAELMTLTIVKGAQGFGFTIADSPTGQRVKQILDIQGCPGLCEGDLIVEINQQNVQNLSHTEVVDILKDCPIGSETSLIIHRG
Assay: holdup assay
Parameters: key: below the threshold = too weak to quantify, mostly under pKd 3.1 to 4
Conditions: plain residues with an end cap or a label only (N-terminal biotin on a linker: ado-ado)

| Binder | pKd |
| --- | --- |
| KKMPSIESDV [GRIN2A, Q12879] | below the threshold |

Target: Inadl_5, Q8NI35
Sequence (Q8NI35 673-780): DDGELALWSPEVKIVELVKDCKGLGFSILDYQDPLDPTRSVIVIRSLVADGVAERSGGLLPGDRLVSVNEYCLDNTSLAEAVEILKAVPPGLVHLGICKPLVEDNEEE
Assay: holdup assay
Parameters: key: below the threshold = too weak to quantify, mostly under pKd 3.1 to 4
Conditions: plain residues with an end cap or a label only (N-terminal biotin on a linker: ado-ado)

| Binder | pKd |
| --- | --- |
| KKMPSIESDV [GRIN2A, Q12879] | below the threshold |

Target: T3, MPDZ_5, O75970
Assay: holdup assay
Parameters: key: below the threshold = too weak to quantify, mostly under pKd 3.1 to 4
Conditions: plain residues with an end cap or a label only (N-terminal biotin on a linker: ado-ado)

| Binder | pKd |
| --- | --- |
| KKMPSIESDV [GRIN2A, Q12879] | below the threshold |

Target: T4, LRRC7, Q96NW7
Assay: holdup assay
Parameters: key: below the threshold = too weak to quantify, mostly under pKd 3.1 to 4
Conditions: plain residues with an end cap or a label only (N-terminal biotin on a linker: ado-ado)

| Binder | pKd |
| --- | --- |
| KKMPSIESDV [GRIN2A, Q12879] | 3.91 |

Target: T5, NHERF3_3, Q5T2W1
Assay: holdup assay
Parameters: key: below the threshold = too weak to quantify, mostly under pKd 3.1 to 4
Conditions: plain residues with an end cap or a label only (N-terminal biotin on a linker: ado-ado)

| Binder | pKd |
| --- | --- |
| KKMPSIESDV [GRIN2A, Q12879] | below the threshold |

Target: DLG1_2, Q12959
Sequence (Q12959 314-412): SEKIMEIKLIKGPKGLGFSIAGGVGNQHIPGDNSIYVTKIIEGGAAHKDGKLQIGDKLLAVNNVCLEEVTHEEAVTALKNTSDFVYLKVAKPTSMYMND
Assay: holdup assay
Parameters: key: below the threshold = too weak to quantify, mostly under pKd 3.1 to 4
Conditions: plain residues with an end cap or a label only (N-terminal biotin on a linker: ado-ado)

| Binder | pKd |
| --- | --- |
| KKMPSIESDV [GRIN2A, Q12879] | 5.44 |

Target: MAGI2_4, Q86UL8
Sequence (Q86UL8 772-865): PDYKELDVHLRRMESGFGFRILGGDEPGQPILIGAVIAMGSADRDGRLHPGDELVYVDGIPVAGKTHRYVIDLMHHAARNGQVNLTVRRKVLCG
Assay: holdup assay
Parameters: key: below the threshold = too weak to quantify, mostly under pKd 3.1 to 4
Conditions: plain residues with an end cap or a label only (N-terminal biotin on a linker: ado-ado)

| Binder | pKd |
| --- | --- |
| KKMPSIESDV [GRIN2A, Q12879] | below the threshold |

Target: T6, PCLO, Q9Y6V0
Assay: holdup assay
Parameters: key: below the threshold = too weak to quantify, mostly under pKd 3.1 to 4
Conditions: plain residues with an end cap or a label only (N-terminal biotin on a linker: ado-ado)

| Binder | pKd |
| --- | --- |
| KKMPSIESDV [GRIN2A, Q12879] | below the threshold |

Target: MAST1, Q9Y2H9
Sequence (Q9Y2H9 962-1065): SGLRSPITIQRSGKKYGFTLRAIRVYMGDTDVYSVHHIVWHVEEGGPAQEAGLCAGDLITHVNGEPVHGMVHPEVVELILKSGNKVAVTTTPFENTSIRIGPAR
Assay: holdup assay
Parameters: key: below the threshold = too weak to quantify, mostly under pKd 3.1 to 4
Conditions: plain residues with an end cap or a label only (N-terminal biotin on a linker: ado-ado)

| Binder | pKd |
| --- | --- |
| KKMPSIESDV [GRIN2A, Q12879] | below the threshold |

Target: T7, NHERF3_4, Q5T2W1
Assay: holdup assay
Parameters: key: below the threshold = too weak to quantify, mostly under pKd 3.1 to 4
Conditions: plain residues with an end cap or a label only (N-terminal biotin on a linker: ado-ado)

| Binder | pKd |
| --- | --- |
| KKMPSIESDV [GRIN2A, Q12879] | below the threshold |

Target: DLG2_2, Q15700
Assay: holdup assay
Parameters: key: below the threshold = too weak to quantify, mostly under pKd 3.1 to 4
Conditions: plain residues with an end cap or a label only (N-terminal biotin on a linker: ado-ado)

| Binder | pKd |
| --- | --- |
| KKMPSIESDV [GRIN2A, Q12879] | 5.04 |

Target: LIMK2, P53671
Sequence (P53671 143-248): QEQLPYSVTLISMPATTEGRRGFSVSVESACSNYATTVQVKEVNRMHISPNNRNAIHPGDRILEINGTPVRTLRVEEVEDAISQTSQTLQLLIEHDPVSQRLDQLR
Assay: holdup assay
Parameters: key: below the threshold = too weak to quantify, mostly under pKd 3.1 to 4
Conditions: plain residues with an end cap or a label only (N-terminal biotin on a linker: ado-ado)

| Binder | pKd |
| --- | --- |
| KKMPSIESDV [GRIN2A, Q12879] | below the threshold |

Target: T8, TX1BP3, O14907
Assay: holdup assay
Parameters: key: below the threshold = too weak to quantify, mostly under pKd 3.1 to 4
Conditions: plain residues with an end cap or a label only (N-terminal biotin on a linker: ado-ado)

| Binder | pKd |
| --- | --- |
| KKMPSIESDV [GRIN2A, Q12879] | 5.13 |

Target: T9, SNTA1, Q13424
Assay: holdup assay
Parameters: key: below the threshold = too weak to quantify, mostly under pKd 3.1 to 4
Conditions: plain residues with an end cap or a label only (N-terminal biotin on a linker: ado-ado)

| Binder | pKd |
| --- | --- |
| KKMPSIESDV [GRIN2A, Q12879] | 4.59 |

Target: T10, GRIP1_3, Q9Y3R0
Assay: holdup assay
Parameters: key: below the threshold = too weak to quantify, mostly under pKd 3.1 to 4
Conditions: plain residues with an end cap or a label only (N-terminal biotin on a linker: ado-ado)

| Binder | pKd |
| --- | --- |
| KKMPSIESDV [GRIN2A, Q12879] | below the threshold |

Target: PDZRN4_1, Q6ZMN7
Sequence (Q6ZMN7 213-318): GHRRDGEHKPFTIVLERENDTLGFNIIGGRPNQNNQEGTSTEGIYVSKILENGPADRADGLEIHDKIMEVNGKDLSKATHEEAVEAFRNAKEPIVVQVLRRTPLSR
Assay: holdup assay
Parameters: key: below the threshold = too weak to quantify, mostly under pKd 3.1 to 4
Conditions: plain residues with an end cap or a label only (N-terminal biotin on a linker: ado-ado)

| Binder | pKd |
| --- | --- |
| KKMPSIESDV [GRIN2A, Q12879] | below the threshold |

Target: T11, GRIP1_7, Q9Y3R0
Assay: holdup assay
Parameters: key: below the threshold = too weak to quantify, mostly under pKd 3.1 to 4
Conditions: plain residues with an end cap or a label only (N-terminal biotin on a linker: ado-ado)

| Binder | pKd |
| --- | --- |
| KKMPSIESDV [GRIN2A, Q12879] | below the threshold |

Target: T12, RHPN1, Q8TCX5
Assay: holdup assay
Parameters: key: below the threshold = too weak to quantify, mostly under pKd 3.1 to 4
Conditions: plain residues with an end cap or a label only (N-terminal biotin on a linker: ado-ado)

| Binder | pKd |
| --- | --- |
| KKMPSIESDV [GRIN2A, Q12879] | 3.83 |

Target: HTRA1, Q92743
Sequence (Q92743 360-477): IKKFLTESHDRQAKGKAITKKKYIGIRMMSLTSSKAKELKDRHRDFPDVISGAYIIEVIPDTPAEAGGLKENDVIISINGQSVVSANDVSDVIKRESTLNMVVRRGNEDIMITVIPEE
Assay: holdup assay
Parameters: key: below the threshold = too weak to quantify, mostly under pKd 3.1 to 4
Conditions: plain residues with an end cap or a label only (N-terminal biotin on a linker: ado-ado)

| Binder | pKd |
| --- | --- |
| KKMPSIESDV [GRIN2A, Q12879] | below the threshold |

Target: GRIP2_7, Q9C0E4
Sequence (Q9C0E4 934-1023): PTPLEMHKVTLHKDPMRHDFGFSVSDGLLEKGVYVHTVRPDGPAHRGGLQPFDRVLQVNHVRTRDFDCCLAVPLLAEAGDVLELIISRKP
Assay: holdup assay
Parameters: key: below the threshold = too weak to quantify, mostly under pKd 3.1 to 4
Conditions: plain residues with an end cap or a label only (N-terminal biotin on a linker: ado-ado)

| Binder | pKd |
| --- | --- |
| KKMPSIESDV [GRIN2A, Q12879] | below the threshold |
